These results are taken from the supplement of paper PMC10567573.

B1: FAM189A2 (parent)
chain: GSEAAVIPLDLGCTQVTQDGDIPN
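Further: lentivirally expressed fusions sorted by FACS into six bins by GFP to DsRed ratio, PSI derived from sequencing read proportions per bin multiplied by bin number.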

In the series the parent is B1. The experiment in a line: protein stability index of a GFP-peptide fusion (GPS, HEK-293T) (PSI 1-6); higher = more stable. As to conditions: c terminus: a fixed tail appended.
For the variant GSEAAVIPLDLGCTQVTQDGFIPN [D21F], the protein stability index was found to be 3.95. Next, GSEAAVIPLDLGCTQVTQDGKIPN [D21K]: 5.48; GSEAAVIPLDLGCTQVTQDGEIPN [D21E]: 5.03. Turning to GSEAAVIPLDLGCTQVTQDGIIPN [D21I], the protein stability index worked out at 4.45. As for GSEAAVIPLDLGCTQVTQDGPIPN [D21P], the protein stability index was 4.77.

In the case of GSEAAVIPLDLGCTQVTQDGSIPN [D21S], the protein stability index was found to be 4.97. Next, GSEAPVIPLDLGCTQVTQDGDIPN [A5P]: 5.68; GSEANVIPLDLGCTQVTQDGDIPN [A5N]: 5.17; GSEAEVIPLDLGCTQVTQDGDIPN [A5E]: 5.13. For GSEARVIPLDLGCTQVTQDGDIPN [A5R] the value was 5.2. Next, GSEAYVIPLDLGCTQVTQDGDIPN [A5Y]: 4.15; GSEAAVIPLDLICTQVTQDGDIPN [G12I]: 4.96; GSEAAVIPLDLDCTQVTQDGDIPN [G12D]: 5.61. GSEAAVIPLDLGCTQVTQDGDHPN [I22H]: the protein stability index was 5.37. Next, GSEAAVIPLDLGCTQVTQDGDLPN [I22L]: 5.39; GSEAAVIPLDLGCTQVTQDGDTPN [I22T]: 5.58. Next, GSEAAVIPLDLGCTQVTQDGDFPN [I22F]: 5.15; GSEAAVIPLDLGCTQVTQDGDNPN [I22N]: 5.25; GSEAAVIPLDLGCTQVTQDGDGPN [I22G]: 5.26. Regarding GSEAAVIPLDLGCTQVTQDGDPPN [I22P], the protein stability index was 5.37. For the variant GSEAAVIPLDLGCTHVTQDGDIPN [Q15H], the protein stability index turned out to be 5.51. Next, GSEAAVIPLDLGCTDVTQDGDIPN [Q15D]: 5.23; GSEAAVIPLDLGCTWVTQDGDIPN [Q15W]: 4.11; GSEAAVIPLDLGCTRVTQDGDIPN [Q15R]: 4.17. As to GSEAAVIPLDLGCTKVTQDGDIPN [Q15K], the protein stability index worked out at 5.16. Next, GSEAAVIPLVLGCTQVTQDGDIPN [D10V]: 4.48; GSEAAVIPLALGCTQVTQDGDIPN [D10A]: 5.39. Regarding GSEAAVIPLPLGCTQVTQDGDIPN [D10P], the protein stability index was 5.26. For GSEAAVIPLNLGCTQVTQDGDIPN [D10N] the value was 5.14; for CSEAAVIPLDLGCTQVTQDGDIPN [G1C], 4.75. Next, WSEAAVIPLDLGCTQVTQDGDIPN [G1W]: 4.31; PSEAAVIPLDLGCTQVTQDGDIPN [G1P]: 5.38; KSEAAVIPLDLGCTQVTQDGDIPN [G1K]: 5.25.

Regarding ISEAAVIPLDLGCTQVTQDGDIPN [G1I], the protein stability index worked out at 4.68. Next, VSEAAVIPLDLGCTQVTQDGDIPN [G1V]: 5.2; GSEAAVIPLDPGCTQVTQDGDIPN [L11P]: 5.45; GSEAAVIPLDSGCTQVTQDGDIPN [L11S]: 5.54.

Regarding GSEAAVIPLDVGCTQVTQDGDIPN [L11V], the protein stability index is 5.65. Turning to GSEAAVIPLDKGCTQVTQDGDIPN [L11K], the protein stability index was 5.6. Turning to GGEAAVIPLDLGCTQVTQDGDIPN [S2G], the protein stability index was 5.03.

With GCEAAVIPLDLGCTQVTQDGDIPN [S2C], the protein stability index came out at 5.49.

Take GQEAAVIPLDLGCTQVTQDGDIPN [S2Q]: the protein stability index is 5.36. Next, GTEAAVIPLDLGCTQVTQDGDIPN [S2T]: 5.01; GSEAAVIPLDLGCTQETQDGDIPN [V16E]: 4.98; GSEAAVIPLDLGCTQCTQDGDIPN [V16C]: 5.31.

Consider GSEAAVIPLDLGSTQVTQDGDIPN [C13S], for which the protein stability index was determined as 5.43. Next, GSEAAVIPLDLGQTQVTQDGDIPN [C13Q]: 5.71; GSEAAVIPLDLGVTQVTQDGDIPN [C13V]: 4.77. In the case of GSEAAVIPLDLGHTQVTQDGDIPN [C13H], the protein stability index came out at 5.63. For GSEAAVIPLDLGCAQVTQDGDIPN [T14A] the value was 5.29. Take GSEAAVIPLDLGCPQVTQDGDIPN [T14P]: the protein stability index is 5.49. For GSEAAVIPADLGCTQVTQDGDIPN [L9A] the value was 4.91; for GSEAAVIPDDLGCTQVTQDGDIPN [L9D], 5.48; for GSEAAVIPKDLGCTQVTQDGDIPN [L9K], 5.46. Next, GSEAAVIPCDLGCTQVTQDGDIPN [L9C]: 5.5; GSEAAVIILDLGCTQVTQDGDIPN [P8I]: 1.87; GSEAAVAPLDLGCTQVTQDGDIPN [I7A]: 5.57. Next, GSEAAVRPLDLGCTQVTQDGDIPN [I7R]: 4.98; GSEAAVIPLDLGCTQVTADGDIPN [Q18A]: 5.46; GSEAAVIPLDLGCTQVTTDGDIPN [Q18T]: 5.02. With GSEAAVIPLDLGCTQVTDDGDIPN [Q18D], the protein stability index turned out to be 5.63. For GSEAAVIPLDLGCTQVTEDGDIPN [Q18E] the value was 5.38; for GSEAAVIPLDLGCTQVTYDGDIPN [Q18Y], 4.61; for GSEAAVIPLDLGCTQVTWDGDIPN [Q18W], 4.67. For GSEAAVIPLDLGCTQVTIDGDIPN [Q18I] the value was 4.62; for GSVAAVIPLDLGCTQVTQDGDIPN [E3V], 4.49; for GSKAAVIPLDLGCTQVTQDGDIPN [E3K], 5.35.

In the case of GSRAAVIPLDLGCTQVTQDGDIPN [E3R], the protein stability index stood at 5.08.

Turning to GSFAAVIPLDLGCTQVTQDGDIPN [E3F], the protein stability index was determined as 4.14. With GSLAAVIPLDLGCTQVTQDGDIPN [E3L], the protein stability index was determined as 4.54. Next, GSEAAVIPLDLGCTQVTQDTDIPN [G20T]: 5.41; GSEAAVIPLDLGCTQVTQDMDIPN [G20M]: 4.83.

Turning to GSEAAVIPLDLGCTQVTQDADIPN [G20A], the protein stability index was found to be 5.24. GSEAAVIPLDLGCTQVTQDSDIPN [G20S]: the protein stability index was found to be 5.32. For GSEAAVIPLDLGCTQVMQDGDIPN [T17M] the value was 5.14.

Take GSEAAVIPLDLGCTQVHQDGDIPN [T17H]: the protein stability index was found to be 5.17. Next, GSEAAVIPLDLGCTQVYQDGDIPN [T17Y]: 4.87. On to GSEAAVIPLDLGCTQVQQDGDIPN [T17Q], for which the protein stability index was 5.24.

On to GSEAAVIPLDLGCTQVKQDGDIPN [T17K], for which the protein stability index was 5.4.

Turning to GSEAAVIPLDLGCTQVSQDGDIPN [T17S], the protein stability index was 5.5. With GSEAAVIPLDLGCTQVTQDGDIPA [N24A], the protein stability index worked out at 5.27.

With GSEAAVIPLDLGCTQVTQDGDIPQ [N24Q], the protein stability index came out at 5.3.

Regarding GSEAAVIPLDLGCTQVTQDGDIPP [N24P], the protein stability index was 5.14. For GSEAAVIPLDLGCTQVTQDGDIPY [N24Y] the value was 4.91. For GSEAAVIPLDLGCTQVTQDGDIPV [N24V], the protein stability index was determined as 5.17. For GSEAAVIPLDLGCTQVTQDGDIPK [N24K] the value was 5.03; for GSEAAGIPLDLGCTQVTQDGDIPN [V6G], 5.33; for GSEAAEIPLDLGCTQVTQDGDIPN [V6E], 5.65. For GSEAAQIPLDLGCTQVTQDGDIPN [V6Q] the value was 5.33; for GSEAANIPLDLGCTQVTQDGDIPN [V6N], 5.44.

With GSEAALIPLDLGCTQVTQDGDIPN [V6L], the protein stability index turned out to be 5.16.

Turning to GSEAAPIPLDLGCTQVTQDGDIPN [V6P], the protein stability index was 5.76. Regarding GSEAAVIPLDLGCTQVTQIGDIPN [D19I], the protein stability index turned out to be 4.3. Regarding GSEAAVIPLDLGCTQVTQFGDIPN [D19F], the protein stability index worked out at 4.46.
